# Measured values published in the nanobody polyreactivity screen of Harvey et al. (2022).
# Assay: yeast display, Sf9 membrane polyspecificity reagent, FACS + sequencing; frameworks hold sequencing errors
# Procedure, shortened: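 Nanobodies came from a synthetic yeast display library in Saccharomyces cerevisiae BJ5465, induced with galactose for 36–48 hours and stained for 1 hour at 4 °C with 10% biotinylated, detergent-solubilized Sf9 membrane reagent. Cells were enriched on streptavidin microbeads and then FACS-sorted, with low and high (top ~1%) gates set on anti-HA fluorescence for expression and streptavidin fluorescence for reagent binding. Each polyreactivity label reflects the gate a clone came from. Genes were amplified by colony PCR, sequenced by MiSeq 2 × 250 and filtered by CDR length.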
row,Sequence,polyreactivity (PSR sort gate)
1,QVQLVVSGGGLVQEGGSLRLSCAAYGNTFFVYAMGGYRQAPGKERELDASITLSGDTTYYADSVKGRFTISRDNAKNPVYLQMNSLKPEDNAVYYCAAKDIRYDDDYWGQGTQVNVSS,low polyreactivity
2,EEELVESGGGLVQAGGSLRLSCAASGSTFLVYAMGWYRQAPGKERELVAVITSGGRTNYADSVKGRFTISRDNAKNTVYLQMNSLKPEDTAVYYCAVDGRSVPAWWPRFDYWGQGTQVTVSS,low polyreactivity
3,QVQLVESGGGLVQAGGSLRLSCAASGITFYRYAMGWYRPAPGKERELVAAISSSGGSTYYADSVKGRFTISRDNAKNSVYLQMNRLKPEDTAVYYCNAVVQNPQEYDYWGQGTQVTVSS,high polyreactivity
4,QVQLVESGGGLVQAGGSLRLSCAASGSTVKRNAMGWYRQAPGKERELVAAITQSGGSTYYADSVKGRFTISRHNAKNTVYLQMNSLKPEDTAVYYCAASDFRGRRYDYWGQGTQVTVSS,high polyreactivity
5,QVQLVESGGGLVQAGGSLRLSCAASGSIFRYNTMGWYRQAPGKERELVATITRRGGSTYYADSVKGRFTISRDNAKNTVYLQMNSLKPEDTAVYYCNADNFGGPYNYWGQGTQVTVSS,low polyreactivity
6,QVQLVESGGGLVQAGGSLRLSCAASGFIFGSNAMGWYRQAPGKERELVAAISRSGGSTYYADSVKGRFTISRDNAKNTVYLQMNSLKPEHTAVYYCASYLYKSRYLPEYDYWGQGTQVTVSS,high polyreactivity
7,QVQLAESGGRLVQAGGRLRLSCAASGRTSTCYAMGWYRQPPGKERELVAAISYRGGSTYYADSVKGRFTISRDNAKNSVYLHLNSLKPEDTAVYYCAAKWYWRGDYWGQGTQVTVSS,high polyreactivity
8,QVQLVDSGGGLVQAGGSLRLSCAASGFIFGKNAMGWYRQAPGKERELVAVISWRGSSTNYADSVKGRFTISRDNAKNTVYLQMNSLKPEDTAVYYCAARYPARGTLYYWGQGTQVTVSS,low polyreactivity
9,QVQLVESGGGLVQAGGSLRLSCAASGRIIGTNARGWYRQAPGNERELVASISSRSTRTYYADSVKGRFTISRDNAKNTVYLQMNSLKPEDTAVYYCAARYPYYVHYDYWGQGTQVTVSS,high polyreactivity
10,QVQLVESGGGLVQAGGSLRLSCAASGIIFATNSMGWYRQAPGKERELVAAITSDSTNYADSVKGRFTISRDNAKNTVYLQMNSLKAEDTAVYYCAADLITDYEESDYWGQGTQVTVSS,low polyreactivity
11,QVQLVESGGGLVQAGGSLRLSCAASGFTFPYYAMGWSRQAPGKERELVAAITSSGTITYYADSVKGRFTISRDNAKNTVYLQMNSLKPEDTAVYYCAARFSSTRYLQWYYYWGQGTQVTVSS,high polyreactivity
12,QVQLVESGGGLVQAGGSLRLSCAASGSIFYTNAMGWYRQAPGKEREMVATITSSTGSTNYADSVKGRFTISRDNAKITVYLQMNSLKPEDTAVYYCAKRDGYWVYYQMDYWGQGTQVTVSS,low polyreactivity
13,QVQLVESGGGLVQAGGSLRLSCAASGRIYTYYTMGWYRQAPGKERELVAAITVRGGRTYYADSVKGRFTISRDNAKNTVYLQMNSLKPEDTAVYYCAARGLVRSYDYWGQVTQVTVSS,high polyreactivity
14,QVQLVESGGGLVQAGGSLRLSCAASGSTLDFYAMGWYRPAPGKERELVAAITWRGGSTYYADSVKGRFTISRDNAKNTVYLQMNCLKPEDTAVYYCAAKSYWLKSQYYSWGQGTQVTVSS,high polyreactivity
15,QVQLVESGGGLVQAGGSLRLSCAASGSIFPAYAMGWYRQAPGKERELVAAITRGGSTDYADSVKGRFTISRDNAKNTVYLQMNSLKPEDTAVYYCATGDGPSLFDYWGQGTQVTVSS,low polyreactivity
16,QVQLGESGGGLVQAGGSVRLSCAASGSTFWVNAMGWYRQAPGKERELVAAISNSGGSTYYADSVKGRFTISRDNAKNTVYLQMNSLKPEDTAVYYCAAAGGVDYDYWGQGTQVTVSS,low polyreactivity
17,QVQLVESGGGLVQAGGSLRLSCAASGGTFGLNAMGWYRQAPGKERELVAAITVTGGSDTYYADSVKGRFTISRDNAKNTVYLQMNSLKPEDTAVYYCAADIGKLYDYWGQGTQVTVSS,low polyreactivity
18,QVQHVESGGGLVQAVGSLRLSCAASGNIFDRNAMGWYRQARGKERELVAAISRSGGRTYYADSVKGRFTISRDNAKNTVYLQMNSLKPEDTAVYYCNRRYRKYSSAKYDYWGQGTQVTVSS,high polyreactivity
19,QVQLVESGGGLVQAGGSLRLSCAASGSTFPNYPMGWYRQAPGKERELVAAITWSGGSTDYADSVKGRFTISRDNAKNTVYLQMNSLKPEDTAVYYCNADFGYWWDGRRYDYWGQGTQVTVSS,low polyreactivity
20,QVQLVESGRGLVQAGGSLRLSCAASGSTFHGYPMGWYRQEPGKERELVAAITSGDSTNYADSVKGRYTISRDNAKNTVYLQMNSLKPEDTAVYYCAALQADRDRYPEFDLMDYWGQGTQVTVSS,low polyreactivity
21,QVQLVESGGGLVQAGGSLRLSCADSGIIFLEYAMGWYRQAPGKERELVAAISSDDGSSTYYADSVKGRFTISRDNAKNTVYLQMNSLKPEDTAVYYCAAYGGGGYYYDYEYWGQGTQVTVSS,high polyreactivity
22,QVQLVESGGGLVQAGGSLRLSCAASGSTFKRYAMGWYRQAPGKERELVAAITRGGGSTYYADSVKGRFTISRDNAKNTVYLQMNSLKPEDTAVYYCNKGYRDYFTAYLSRYYWGQGTQVTVSS,high polyreactivity

row,Sequence,polyreactivity (PSR sort gate)
1,QVQLVESGGGLVQAGGSLRLICAASGIILYSYAMGWYRQAPGKERELVAAISRRGTSTFYADSVKGRFTISRDNAKNTVYLQMNSLKPEDTAVYYCAADFYTNHYDYWGQGTQVTVSS,high polyreactivity
2,QVQLVESGGGLVQAGGSLRLSCAASGYTFRYNALGWYRQAPGKERELVAAISSSGRTYYADSVKGRFTSSRDNAKNTVDLQMNSLKPDATAVYYCNAGPYAGARYRWGYDYWGQGTQVTVSS,high polyreactivity
3,QVQLVESGGGLVQAGGSLRLSCAASGFTFRSYAMGWYRQAPGKERELVASISWSGTSTYYADSVKGRFTISRDNAKNTVYLQMNSLKPEDTAVYYCNKYPSFYGAGYYWGQGTQVTVSS,high polyreactivity
4,QVQHVESGGGIVQAGGSLRLSCAASGLTITAYVMGWYRQAPGKERELVAAIRNSGGSTYYADSVKGRFTISRDNAKNTVYLQMISLKPEDTAVYYCAKQTSYWSRGYDYWGQGTQVTVSS,low polyreactivity
5,QVQLVESGGGLVQAGGSLRLSCAASGNTFWRYAMGWYRQAPGKERELVAAITYTSGSTYYADSVKGRFTISRDNAKNTVYLQMNSLKPEDTAVYYCAAESVYGSGYVFRYYYWGQGTQVSVSS,high polyreactivity
6,QFQLVESVVGLVQAGGSLRLSCAASGTTFGVNDMRWYRQAPGKEREFVADITTSGGSTYYADSVKGRFTISRDNAKNTVYLQMNSLKPEDTAVYYCAADLWPFEHDDYWGQGTQVTVSS,low polyreactivity
7,QVQLVESGGGLVQAGGRLRLSCAASGSTFYSNAMGWYRQAPGKERELVASIRFSGVITTYADSVKGRFTISRDNAKNTVYLQMNSLKPEDTAVYYCDAGYLSTTAYDYWGQGTQVTVSS,low polyreactivity
8,QVQLVESGGGLVQAGGSLRLSCAASGSNFRYNAIGWYRQAPGKERELVAAISWSGGSTYYADSVKGRFTISRDNAKNTVYLQMNSLKPEDTAVYYCATRYYGIVPGRRYGYWGQGTQVTVSS,low polyreactivity
9,QVQLVESGGGLVQAGGSLRLSCAASGRSFGVYAMGWYRQAPGKERELVAVISSGGSTTYADSVKGRFTISRDNAKNTVYLQMNSLKPEDTAVYYCAAVSYRRHFGPYNYWGQGTQVTVSS,low polyreactivity
10,QVQLVESGGGLVQAGGSLRLSCAASGFTFGYYAMGWSRQAPGKESELLATITSSGASTYADSVKGRFTISRDNAKNTVYLQMNSLKPEDTAVYYCAADRLPSYWSWYGYDYWGQGTQVTVSS,high polyreactivity
11,QVQLVESGGGLVQAGGSLRLSCAASGSIFSWNAMGWYRQAPGKERELVAAISTRGSSTYYADSVKGRFTISRDNAKNTVYLQMNSLKPEDTAVYYCNAARTFPFYWGLRGSQRYDYWGQGTQVTVSS,high polyreactivity
12,QVQLVESGGGLVQAGGSLRLSCAASGLIFIFNTMGWYRQAPGKERELVAAISWSGTSTYYADSVKGRFTISRDNANMTVYLLMNSLKPVDTAVYFCNDDLYWFRGFDYWGQGTQVTVSS,high polyreactivity
13,QVQHVESGGGLVQAGGSLRLSCAASGFIFRRYVMGWYRQAPGKERELVAAISYGGGSTYYADSVKGRFTISRDNAKNTVYLQMNCLKPEDTAVYYCNAVSYNLAAYDYWGQGTQVTVSS,high polyreactivity
14,QVQLVESGGGLVQAGGSLRLSCAASGLTFIRYTRGWYRQAPGKDRELVAAINWSGDSTYYADSVKGRFTISLDNAKITVYLQMNSLKPEDTAVYYFNARRPRFRYDYWGQGTQVTVSW,high polyreactivity
15,QVQLVESGGGLVQAGGSLRLSCAASGRTFYVYTMGWYRQAPGKERELVAAITSGGSTNYADSVKGRFTISRDNAKNTVYLQMNSLKPEDTAVYYCAARVSTVFKRYYYCGQGTQVTVSS,high polyreactivity
16,QVQLVESGGGLVQAGGSLRLSCAASGRIFAKNAMGWYRQAPGKERELVAAINHSGGSTYYADSVKGRFTISRDNAKNTVYLQMNSLKPEDTAVYYCAALGSGVPRYYYWGQGTQVTVSS,high polyreactivity
17,QVQLVESGGGLVQAGGSLRLSCAASGFIIKFCAMGLYRQAPGKERELVATITFSSGTTYYADSVKGRFTISRDNAKYTVYLQMNSLKPEDTAVYYCAASTLPAWPYDGPAGPRYDYWGQGTQVTVSS,low polyreactivity
18,QVQRVESGGGLVQAGGSLRLTCAASGITFFVYAMGCYRQAPGKERELVATINWSGASTYYADSVKGRFTISRDNAKNSVYLQMNSLKPEDTAVYYCAKDGHYPLVYLAFDYWGQGTQVTVSS,low polyreactivity
19,QVQLVESGGGLVQAGGSLRLSCAASGITFKYYAMGWYRQAPGKERELVAAIRGGRTYYADSVKGRFTISRDNAKNTVYLQMNSLKPEDTAVYYCNARYYQSGIKYNYWGQGTQVTVSS,high polyreactivity
20,QVQLVESGGGLVQAGGSLRLSCAASGSTSTRYAMGWYRPAPGKERELVAAISKSGGRTYYADSVKGRFTMSRDNAKNTVYLQMNSLKPEDTAVYYCNTVPGRYRTFDYWGQGTQVTVSS,high polyreactivity
21,QVQLVESGGGLVQAGGSLRLSCAASGRTWFYAMGWYRQAPGKERELVAAISGSSGSTYYADSVKGRFTISRDNAKNTVYLQMNSLKPEDTAVYYCAADFWRFYYEYDYWGQGTQVTVSS,low polyreactivity
